# Measurements published in patent US20170037110A1 (IMMATICS BIOTECHNOLOGIES, published 2017).
# Molecular target: T1, HLA-A*02:01 (human)
# T1 construct: monomers captured on streptavidin plates; also called MHC class I
# Experiment: UV peptide exchange ELISA
# From the text: Candidate peptides for T cell based therapies according to the present invention were further tested for their MHC binding capacity (affinity). The individual peptide-MHC complexes were produced by UV-ligand exchange, where a UV-sensitive peptide is cleaved upon UV-irradiation, and exchanged with the peptide of interest as analyzed. Only peptide candidates that can effectively bind and stabilize the peptide-receptive MHC molecules prevent dissociation of the MHC complexes. To determine the yield of the exchange reaction, an ELISA was performed based on the detection of the light chain (p2m) of stabilized MHC complexes.
# 96 well MAXISorp plates (NUNC) were coated over night with 2 μg/ml streptavidin in PBS at room temperature, washed 4× and blocked for 1 h at 37° C. in 2% BSA containing blocking buffer. […] Peptide-MHC monomers of the UV-exchange reaction were diluted 100 fold in blocking buffer. Samples were incubated for 1h at 37° C., washed four times, incubated with 2 μg/ml HRP conjugated anti-p2m for 1h at 37° C., washed again and detected with TMB solution that is stopped with […]. Absorption was measured at 450 nm.
row,Binder,peptide exchange yield
1,LLLNAVLTV,20 to 50%
2,YLNHLEPPV,50 to 75%
3,ALLEGVNTV,50 to 75%
4,YLMDINGKMWL,50 to 75%
5,ALWDQDNLSV,20 to 50%
6,ALLDQQGSRWTL,50 to 75%
7,ALAQYLITA,50 to 75%
8,KMLDGASFTL,50 to 75%
9,GLFPVTPEAV,50 to 75%
10,RLQETLSAA,50 to 75%
11,KIFEMLEGV,50 to 75%
12,NLWEDPYYL,50 to 75%
13,ALPLFVITV,50 to 75%
14,FTLGNVVGMYL,≥ 75%
15,FLSSLTETI,50 to 75%
16,ALLENIALYL,50 to 75%
17,GLFADLLPRL,50 to 75%
18,FLFDEEIEQI,50 to 75%
19,YLLPEEYTSTL,≥ 75%
20,YLFENISQL,50 to 75%
21,QLLDADGFLNV,50 to 75%
22,LLFGSVQEV,50 to 75%
23,LLDSASAGLYL,50 to 75%
24,RQISIRGIVGV,50 to 75%

row,Binder,peptide exchange yield
1,KLSDIGITV,50 to 75%
2,ALLPQPKNLTV,50 to 75%
3,KILDADIQL,≥ 75%
4,KVLNELYTV,50 to 75%
5,ALTEIAFVV,≥ 75%
6,YLMEGSYNKVFL,20 to 50%
7,KLIESKHEV,20 to 50%
8,NLPEYLPFV,50 to 75%
9,KTINKVPTV,50 to 75%
10,MLLEAPGIFL,50 to 75%
11,SALEELVNV,20 to 50%
12,SLYPGTETMGL,50 to 75%
13,LLQKFVPEI,20 to 50%
14,LLWPGAALL,20 to 50%
15,YQQAQVPSV,50 to 75%
16,FQIDPHSGLVTV,20 to 50%
17,ALQRKLPYV,50 to 75%
18,GLVGNPLPSV,≥ 75%
19,FLIDDKGYTL,20 to 50%
20,LLLPLQILL,50 to 75%
21,KVLEVTEEFGV,50 to 75%
22,ALGPEGGRV,20 to 50%
23,LLQEGQALEYV,20 to 50%
24,KIAENVEEV,20 to 50%

row,Binder,peptide exchange yield
1,FLATFPLAAV,≥ 75%
2,KLFDVDEDGYI,50 to 75%
3,ALYEEGLLL,20 to 50%
4,YLMDESLNL,50 to 75%
5,GLTSTNAEV,20 to 50%
6,FLLDLDPLLL,50 to 75%
7,GAAKDLPGV,20 to 50%
8,TLFFQQNAL,20 to 50%
9,VLQEGKLQKLAQL,50 to 75%
10,SLWPDPMEV,50 to 75%
11,FGLDLVTEL,50 to 75%
12,QLINHLHAV,50 to 75%
13,SLLDEIRAV,50 to 75%
14,RLVDYLEGI,50 to 75%
15,ALDEMGDLLQL,50 to 75%
16,NLIENVQRL,20 to 50%
17,ALIHPVSTV,20 to 50%
18,ALQDVPLSSV,50 to 75%
19,YLYSVEIKL,≥ 75%
20,KISPVTFSV,50 to 75%
21,LLWAGTAFQV,50 to 75%
22,VLYSYTIITV,20 to 50%
